According to the supplement of paper PMC7877785:
± gives the uncertainty stated by the source.

Experiment: self-splicing fitness, log relative to wild type (ln ratio); higher = more splicing; Tetrahymena group I intron in knt gene, E. coli kanamycin selection, DiMSum; sequences stand for … in CUCUCU…GGAGGGAAAAGUUAUCAGGCAUGCACCUGGUAGCUAGUCUUUAAACCAAUAGAUUGCAUCGGUUUAAAAGGCAAGACCGUCAAAUUGCGGGAAAGGGGUCAACAGCCGUUCAGUACCAAGUCUCAGGGGAAACUUUGAGAUGGCCUUGCAAAGGGUAUGGUAAUAAGCUGACGGACAUGGUCCUAACCACGCAGCCAAGUCCUAAGUCAACAGAUCUUCUGUUGAUAUGGAUGCAGUUCACAGACUAAAUGUCGGUCGGGGAAGAUGUAUUCUUCUCAUAAGAUAUAGUCGGACCUCUCCUUAAUGGGAGCUAGCGGAUGAAGUGAUGCAACACUGGAGCCGCUGGGAACUAAUUUGUAUGCGAAAGUAUAUUGAUUAGUUUUGGAGUACUCGUGGUCG
Outline: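 Colonies from six replicate transformations of E. coli BL21(DE3) were pooled and amplicon-sequenced on an Illumina HiSeq 2500. The library placed an intron with all eight P1ex-region nucleotides randomised inside the knt kanamycin-resistance gene on pET-22b(+), and cells grew overnight at 37°C or 30°C on LB agar with or without 25 μg/mL kanamycin (plus 100 μg/mL carbenicillin, 50 μM IPTG, 0.2% rhamnose). Fitness is the DiMSum error-weighted combination of wild-type-normalised replicate fold changes, kanamycin versus none.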

Sequence	self-splicing fitness (ln) (30 °C)	self-splicing fitness (ln) (37 °C)
GGCCAGCAAUAUUACGUCGG	-3.69 ± 0.26	-1.9 ± 0.24
UGACAGCAAUAUUACGCAAA	-2.27 ± 0.18	-1.73 ± 0.2
CCUCAGCAAUAUUACGAUCC	-2.43 ± 0.44	–
CUCUAGCAAUAUUACGUAUA	-2.7 ± 0.3	-2.84 ± 0.25
AUCAAGCAAUAUUACGAUGU	-0.836 ± 0.083	-0.217 ± 0.091
ACCCAGCAAUAUUACGGCGA	-0.786 ± 0.076	0.532 ± 0.096
CCCUAGCAAUAUUACGUUCC	-2.3 ± 0.22	-2.11 ± 0.24
GUUAAGCAAUAUUACGAUAU	-1.02 ± 0.067	-0.0864 ± 0.074
UAGCAGCAAUAUUACGGUAA	-1.32 ± 0.09	-1.13 ± 0.11
UUGCAGCAAUAUUACGCAUG	-2.52 ± 0.13	-2.99 ± 0.19
AGCGAGCAAUAUUACGAAUU	–	-1.41 ± 0.34
AGCUAGCAAUAUUACGCCAA	-1.7 ± 0.27	-1.75 ± 0.2
GCUGAGCAAUAUUACGUCAA	-3.38 ± 0.47	–
CACGAGCAAUAUUACGACAG	-1.71 ± 0.078	-0.496 ± 0.095
UUGCAGCAAUAUUACGCUUC	-3.76 ± 0.35	-2.76 ± 0.25
ACGUAGCAAUAUUACGGUCG	-1.23 ± 0.093	-0.666 ± 0.12
CAGCAGCAAUAUUACGGAUU	-3 ± 0.14	-1.64 ± 0.13
AUAUAGCAAUAUUACGUGUC	-4.06 ± 0.34	-1.88 ± 0.32
AAGCAGCAAUAUUACGACGA	-0.888 ± 0.089	-0.307 ± 0.094
CCAUAGCAAUAUUACGUAUU	-3.88 ± 0.19	-2.64 ± 0.21

Sequence	self-splicing fitness (ln) (30 °C)	self-splicing fitness (ln) (37 °C)
UUACAGCAAUAUUACGCGUU	-3.05 ± 0.14	-1.95 ± 0.15
AUAUAGCAAUAUUACGAUGC	-2.89 ± 0.27	-0.335 ± 0.22
ACAUAGCAAUAUUACGGUUU	-2.13 ± 0.057	-0.763 ± 0.071
UGACAGCAAUAUUACGGCUG	-2.28 ± 0.18	-0.623 ± 0.15
CAAUAGCAAUAUUACGUUCU	-4.4 ± 0.43	–
CACUAGCAAUAUUACGGACU	-2.87 ± 0.18	-1.13 ± 0.14
UCUGAGCAAUAUUACGGCCG	-2.7 ± 0.37	–
AUAAAGCAAUAUUACGUACU	0.123 ± 0.081	0.445 ± 0.095
AGGUAGCAAUAUUACGCCCA	0.15 ± 0.02	-0.0344 ± 0.039
UACUAGCAAUAUUACGCGGG	-3.19 ± 0.22	-1.75 ± 0.2
AGAGAGCAAUAUUACGUCGA	-2 ± 0.32	–
UCAAAGCAAUAUUACGUUUG	-3.43 ± 0.16	-1.82 ± 0.14
ACAAAGCAAUAUUACGAAAG	-1.59 ± 0.12	-1.32 ± 0.14
UAUAAGCAAUAUUACGGUUA	0.0292 ± 0.084	0.311 ± 0.095
UCGCAGCAAUAUUACGUAGU	-2.58 ± 0.13	-2.85 ± 0.26
AAGGAGCAAUAUUACGCUAC	-2.75 ± 0.43	–
ACUUAGCAAUAUUACGGUCG	-2.52 ± 0.17	-1.35 ± 0.2
GAUCAGCAAUAUUACGUUUA	-0.394 ± 0.084	0.0451 ± 0.095
AGAGAGCAAUAUUACGAUCU	-4.39 ± 0.42	-2.22 ± 0.2
UACAAGCAAUAUUACGCACU	-0.66 ± 0.077	-0.133 ± 0.09
